In patent publication US20060127393A1 (Amgen, published 2006):

Tests used:
[1] = molecular target: T1, CNBr2 fragment of human Dkk-1 (human, UniProt O94907 32-122; O94907 127-178); assay: BiaCore
T1 construct: Two peptides held together by disulfide bonds; represents disulfide domain 1
T1 sequence 1: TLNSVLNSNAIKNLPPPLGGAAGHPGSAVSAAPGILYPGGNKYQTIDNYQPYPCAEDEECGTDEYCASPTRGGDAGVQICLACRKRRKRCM
T1 sequence 2: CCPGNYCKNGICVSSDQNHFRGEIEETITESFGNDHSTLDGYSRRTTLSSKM
Experimental: To characterize this conformational epitope, a strategy was applied that involved fragmenting human Dkk-1 with cyanogen bromide (CNBr) and several different proteases, then testing the resulting fragments to see whether they could still bind to the 11H10 antibody. The resulting data permitted the location of the epitope to be determined. In brief, the peptide digests were incubated with or without the antibody, passed through a 10 K cut-off membrane to trap any peptides that had become bound to the antibody (˜150,000 Da), then subjected to HPLC peptide mapping. […] The individual HPLC peaks were collected and the peptides identified and mapped by N-terminal sequencing. To determine if the peptides could bind 11H10, they were subjected to real time biospecific interaction assays with a BiaCore work station, using Protein A-trapped anti-Dkk-1 antibody as a biosensor for binding.
CNBr cleavage of hDkk-1 generated two large fragments, CNBr1 and CNBr2. These represented, respectively, disulfide domain 2 and disulfide domain 1. […] CNBr2 similarly consisted of two peptides (amino acids 32-122 of SEQ ID NO:2 and amino acids 127-178 of SEQ ID NO:2), also held together by disulfide bonds. […] Thus, it was concluded that 11H10 binds to an epitope located in disulfide domain 2 of Dkk-1.

human Dkk-1 [2] = molecular target: T2, human Dkk-1 (human, UniProt O94907 32-266, carbohydrate moieties attached to Asn256); assay: cell-based or functional assay
T2 sequence: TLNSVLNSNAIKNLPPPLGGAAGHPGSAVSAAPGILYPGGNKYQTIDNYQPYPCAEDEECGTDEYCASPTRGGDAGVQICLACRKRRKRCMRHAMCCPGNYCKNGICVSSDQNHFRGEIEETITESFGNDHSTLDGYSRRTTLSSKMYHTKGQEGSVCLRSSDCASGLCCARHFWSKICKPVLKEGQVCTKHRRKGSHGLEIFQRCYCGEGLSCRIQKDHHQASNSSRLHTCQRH

murine Dkk-1 [3] = molecular target: T3, murine Dkk-1 (mouse, UniProt O54908 32-272); assay: cell-based or functional assay
T3 sequence: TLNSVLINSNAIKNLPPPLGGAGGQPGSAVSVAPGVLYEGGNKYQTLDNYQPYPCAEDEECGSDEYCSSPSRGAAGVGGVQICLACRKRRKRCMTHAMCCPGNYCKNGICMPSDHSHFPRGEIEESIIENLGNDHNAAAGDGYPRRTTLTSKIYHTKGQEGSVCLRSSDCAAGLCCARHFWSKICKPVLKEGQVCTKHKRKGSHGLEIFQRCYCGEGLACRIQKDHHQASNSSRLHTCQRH

human Dkk-1 [4] = molecular target: T2, human Dkk-1; assay: cell-based or functional assay; remark: listed apart in the source
murine Dkk-1 [5] = molecular target: T3, murine Dkk-1; assay: cell-based or functional assay; remark: listed apart in the source
rat Dkk-1 [6] = molecular target: rat Dkk-1 (rat); assay: cell-based or functional assay
human Dkk-1 [7] = molecular target: T2, human Dkk-1; assay: KinExA 3000 equilibrium binding in solution, Dkk-1-coated beads
Excerpt: (§1) It was apparent from the BiaCore results that 11H10 had the higher affinity for Dkk-1, and that its affinity for target exceeded the sensitivity limits of the BiaCore assay. Accordingly, the affinity of binding of 11H10 to Dkk-1 was further assessed by an equilibrium binding analysis using the more sensitive KinExA® 3000 (Sapidyne Instruments Inc., Boise, Id.). For these measurements, Reacti-Gel 6× beads (Pierce, Rockford, Ill.) were pre-coated with either mouse, rat or human Dkk-1 and blocked with BSA. One hundred pM, 300 pM, or 1000 pM of the 11H10 antibody was mixed with various concentrations of human, mouse or rat Dkk-1, ranging in concentration from 1 pM to 50 nM, and equilibrated at room temperature for 8 hours. The mixtures were then passed over the Dkk-1-coated beads. The amount of bead-bound anti-Dkk-1 antibody was quantified using goat anti-rat-IgG antibody labeled with a fluorescent tag (Cy5; Jackson Immuno Research, West Grove, Pa.). The amount of fluorescent signal measured was proportional to the concentration of free anti-Dkk-1 antibody in each reaction mixture at equilibrium. The dissociation equilibrium constant (Kd) was obtained from nonlinear regression of the competition curves using a dual-curve one-site homogeneous binding model using the KinExA software.

murine Dkk-1 [8] = molecular target: T3, murine Dkk-1; assay: as above
Excerpt: as §1

rat Dkk-1 [9] = molecular target: rat Dkk-1 (rat); assay: as above
Excerpt: as §1

human Dkk-1 [10] = molecular target: T2, human Dkk-1; assay: SPR, BiaCore 2000, Dkk-1 immobilized on CM5 chip, antibody injected
Experimental: (§2) Kinetic analyses were performed to study the binding of the 11H10 and 1F11 antibodies to Dkk-1 using BiaCore 2000 (BIACORE, Uppsala, Sweden). Rat Dkk-1 (260 μg/ml), murine Dkk-1 (690 μg/ml) and human Dkk-1(900 μg/ml) were immobilized on a CM5 chip surface, and various concentrations (0.78 nM to about 100 nM) of the antibodies were injected over the immobilized Dkk-1 surfaces. The binding sensorgrams were analyzed using BIAevaluation 3.2.

murine Dkk-1 [11] = molecular target: T3, murine Dkk-1; assay: as above
Experimental: as §2

rat Dkk-1 [12] = molecular target: rat Dkk-1 (rat); assay: as above
Experimental: as §2

binding result [1]: no binding
EC50 (nM), restoring ALP activity in ST2 cells given Wnt3a and Dkk-1 (human Dkk-1 [2]): 3.5 nM
EC50 (nM), restoring ALP activity in ST2 cells given Wnt3a and Dkk-1 (murine Dkk-1 [3]): 6.1 nM
EC50 (nM), TCF-lef luciferase assay (human Dkk-1 [4]): 4 nM
EC50 (nM), TCF-lef luciferase assay (murine Dkk-1 [5]): 11.5 nM
EC50 (nM), TCF-lef luciferase assay (rat Dkk-1 [6]): 5 nM
Kd (human Dkk-1 [7]): 0.13 nM
Kd (murine Dkk-1 [8]): 0.165 nM
Kd (rat Dkk-1 [9]): 0.54 nM
Kd (human Dkk-1 [10]): < 0.1 nM
koff (human Dkk-1 [10]): < 5e-05 s⁻¹
kon (human Dkk-1 [10]): 52000 M⁻¹ s⁻¹
Kd (murine Dkk-1 [11]): < 0.1 nM
koff (murine Dkk-1 [11]): < 5e-05 s⁻¹
kon (murine Dkk-1 [11]): 54000 M⁻¹ s⁻¹
Kd (rat Dkk-1 [12]): 0.29 nM
koff (rat Dkk-1 [12]): 1.54e-05 s⁻¹
kon (rat Dkk-1 [12]): 54000 M⁻¹ s⁻¹
B1: 11H10 monoclonal antibody (rat) (antibody, IgG1, V domains shown)
VH: EVQLVESGGGLVQPANSLKLSCAASGFTFSDYAMAWVRQSPKKGLEWVATIIYDGSSTYYRDSVKGRFTISRDNAKSTLYLQMDSLRSEDTATYYCATGLGIATDYFDYWGQGVLVTVSS
VL: DIRMTQSPASLSASLGETVNIECLASEDIYSDLAWYQQKPGKSPQLLIYNANSLQNGVPSRFSGSGSGTQYSLKINSLQSEDVATYFCQQYNNYPPTFGGGTKLELKR
notes: Rat hybridoma antibody of the IgG1 isotype; also called rat 11H10; L1H1
